Assay results as given in patent publication EP0912608B1.

Biological target: Fibronectin from human plasma (human) (UniProt P02751)
Experiment: cell-based or functional assay

Chain of UniProt P02751 (P02751 other isoform, or with tags, fused parts or gaps limits assumed): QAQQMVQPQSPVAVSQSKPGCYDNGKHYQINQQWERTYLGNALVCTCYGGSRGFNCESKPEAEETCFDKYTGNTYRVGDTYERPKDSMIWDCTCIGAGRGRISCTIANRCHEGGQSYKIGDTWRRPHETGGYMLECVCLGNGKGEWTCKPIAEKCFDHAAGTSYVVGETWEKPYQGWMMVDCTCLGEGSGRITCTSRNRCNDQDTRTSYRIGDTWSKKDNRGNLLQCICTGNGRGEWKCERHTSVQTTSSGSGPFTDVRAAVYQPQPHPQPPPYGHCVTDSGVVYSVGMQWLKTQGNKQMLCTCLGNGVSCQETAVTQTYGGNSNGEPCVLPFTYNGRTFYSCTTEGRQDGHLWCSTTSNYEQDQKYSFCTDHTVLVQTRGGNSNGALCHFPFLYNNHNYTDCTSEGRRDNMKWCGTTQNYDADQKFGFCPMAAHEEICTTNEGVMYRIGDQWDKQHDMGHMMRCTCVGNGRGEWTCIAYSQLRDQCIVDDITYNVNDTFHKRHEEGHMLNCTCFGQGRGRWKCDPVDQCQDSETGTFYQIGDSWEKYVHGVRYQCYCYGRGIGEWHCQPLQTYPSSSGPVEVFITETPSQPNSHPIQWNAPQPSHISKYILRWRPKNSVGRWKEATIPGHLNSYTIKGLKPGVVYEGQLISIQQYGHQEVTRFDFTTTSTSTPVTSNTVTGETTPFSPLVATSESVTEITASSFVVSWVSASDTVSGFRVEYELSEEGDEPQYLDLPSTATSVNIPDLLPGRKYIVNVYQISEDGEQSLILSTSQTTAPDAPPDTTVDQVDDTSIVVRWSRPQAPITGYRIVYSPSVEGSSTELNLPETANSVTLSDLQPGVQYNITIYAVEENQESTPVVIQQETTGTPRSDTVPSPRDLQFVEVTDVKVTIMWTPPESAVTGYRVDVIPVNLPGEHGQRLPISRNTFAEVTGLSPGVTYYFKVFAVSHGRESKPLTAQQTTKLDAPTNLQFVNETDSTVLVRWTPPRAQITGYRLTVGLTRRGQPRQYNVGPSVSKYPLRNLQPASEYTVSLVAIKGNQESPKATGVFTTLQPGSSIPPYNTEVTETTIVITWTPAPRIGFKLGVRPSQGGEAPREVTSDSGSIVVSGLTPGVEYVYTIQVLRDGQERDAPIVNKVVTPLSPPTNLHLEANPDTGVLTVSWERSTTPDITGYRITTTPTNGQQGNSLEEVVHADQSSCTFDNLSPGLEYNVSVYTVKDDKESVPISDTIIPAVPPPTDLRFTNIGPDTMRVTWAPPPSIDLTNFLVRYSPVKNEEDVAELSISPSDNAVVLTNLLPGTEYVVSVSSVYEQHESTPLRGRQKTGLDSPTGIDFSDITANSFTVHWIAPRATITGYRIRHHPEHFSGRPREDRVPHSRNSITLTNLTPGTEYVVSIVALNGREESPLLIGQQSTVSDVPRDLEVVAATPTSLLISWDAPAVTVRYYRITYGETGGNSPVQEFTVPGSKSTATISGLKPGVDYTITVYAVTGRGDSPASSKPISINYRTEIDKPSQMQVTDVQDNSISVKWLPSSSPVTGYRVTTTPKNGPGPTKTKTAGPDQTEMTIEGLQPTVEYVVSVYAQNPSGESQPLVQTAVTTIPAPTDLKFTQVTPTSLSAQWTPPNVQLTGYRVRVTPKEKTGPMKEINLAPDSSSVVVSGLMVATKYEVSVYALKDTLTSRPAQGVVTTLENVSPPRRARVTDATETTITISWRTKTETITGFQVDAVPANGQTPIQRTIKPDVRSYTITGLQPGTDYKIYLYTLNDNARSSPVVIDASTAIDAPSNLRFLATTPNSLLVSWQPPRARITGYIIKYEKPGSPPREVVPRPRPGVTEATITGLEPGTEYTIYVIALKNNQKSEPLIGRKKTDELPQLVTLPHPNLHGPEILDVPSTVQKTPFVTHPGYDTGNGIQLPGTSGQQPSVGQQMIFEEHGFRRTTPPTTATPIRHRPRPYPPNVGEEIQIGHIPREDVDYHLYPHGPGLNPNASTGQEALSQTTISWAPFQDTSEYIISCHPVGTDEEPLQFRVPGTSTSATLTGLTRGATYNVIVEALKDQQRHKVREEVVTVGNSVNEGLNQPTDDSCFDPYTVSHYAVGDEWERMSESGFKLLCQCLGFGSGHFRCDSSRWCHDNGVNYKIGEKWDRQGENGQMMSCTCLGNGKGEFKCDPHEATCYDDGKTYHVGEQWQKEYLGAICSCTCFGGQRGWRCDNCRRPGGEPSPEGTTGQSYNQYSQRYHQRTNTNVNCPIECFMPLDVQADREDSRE

yeast enolase (Sigma) (from UniProt P00924 2-437) (enzyme)
inhibition of pneumococcal adherence to fibronectin: 98%
